Experimental data taken from the nanobody polyreactivity screen of Harvey et al. (2022).

Assay: yeast display, Sf9 membrane polyspecificity reagent, FACS + sequencing; frameworks hold sequencing errors
Method in brief: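 Nanobodies came from a synthetic yeast display library in Saccharomyces cerevisiae BJ5465, induced with galactose for 36–48 hours and stained for 1 hour at 4 °C with 10% biotinylated, detergent-solubilized Sf9 membrane reagent. Cells were enriched on streptavidin microbeads and then FACS-sorted, with low and high (top ~1%) gates set on anti-HA fluorescence for expression and streptavidin fluorescence for reagent binding. Each polyreactivity label reflects the gate a clone came from. Genes were amplified by colony PCR, sequenced by MiSeq 2 × 250 and filtered by CDR length.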

| Sequence | polyreactivity (PSR sort gate) |
| --- | --- |
| QVQLVESGGGLVQAGGSLRLSCAASGRTFPRYTMGWYRPAPGKERELVAASATGGSTYYADSVKGRFTISRDNAKNTVYLQMNSLKPEDTAVYYCAARPYSNRYVLGVYYWGQGTQVTVSS | high polyreactivity |
| QDQLVESGGGLVQAGGSLRLSCASSGFTFNGYAMGWYRQAPGKERELVAAINISGGSTYYADSVKGRFTISRDNAKNTVYLQMNSLNPEDTAVYYCAARLWGKRYSYRYGYWGQGTQVTVSS | high polyreactivity |
| QVQLVESGGGLVQAGGSLRLSCAASGRIFGYNAMGWYRQAPGKVRELVAAITTSGGSTYYADSVTGRFTISRDTAKNTVYLQMNSLKPEDTAVYYCARDSLQVFYQYASDDYWGQGTQVTVSS | low polyreactivity |
| QVQLVESGGGLVQAGGSLRLSCAASGRPSLLMLWDGIDRRLGKKGSWLPLLTLVTPTTYADSVKGRFTISRDNAKNTVYLQMNSLKPEDTAVYYCNADFRPLDHYVNWYYYWGQGTQVTVSS | low polyreactivity |
| QVQLVESGGGLVQAGGSLRLSCAASGSIFSGYVMGWYRQAPGKERELVAAINSRAGRTYYADSVKGRFTISRDNAKNTVYLQMNSLKPEDTAVYYCNAPTSFHRGGGYWGQGTQVTVSS | high polyreactivity |
| QVQLVESGGGLVQAGGSLRLSCAASGFTLYYYTMGWYRQAPGKERELVAAITSGGDTYYADSVKGRFTISRDNAKNTVYLQMNSLKPEDTAVYYCDAKKKYHYVASYKRFEYWGQGTQVTVSS | low polyreactivity |
| QVQLVESGGGLVQAGGSLRLSCAASGRISRGNAMGWYRHAPGKEREFVAAISWSGDGTYYADSVKGRFTISRDNAKNTVYLQMNSLKPEDTAVYYCADGATPRYSKYDYWGQGTQGTVSS | low polyreactivity |
| QVQLVESGGGLVQAGGSLRLICAASGSTFFYYAMGWYRQAPGKERELVARISGGGSTNYADSVKGRFTISRDNAKNTVYLKMNSLNPEDTAVYYCAADRYHYYRYSYGRYGYWGQCTQVTVSS | high polyreactivity |
| QVHHVESGGGLVQAGGSLRLSSAASGSIFTYTMGWYRQAPGKERELVAAISGGGGRTYYADSVKGRFTISRDNAKNNVYLQMKSLKPEDSAVYYCNAYQYWRYRWQYNYWGQGTQVTVSW | high polyreactivity |
| QVLLVESGGGLVQAGGSLRLSCGASGITFAEYAMGWYRKAPGKEREFVAAISRRGGSTYYADSVKGRFTISRDNAKNTVYIQMNTLKPEDTAVYYCNRRYDTFRFEHDYDYWGQGTQVTVSS | low polyreactivity |
| QVQLVESGGGLVQAGGSLRLSCAASGRIFTNNAMGWYRQAPGKERELVAAISKRGGSTYYADSVKGRFTISRDNAKNTVYLQMNSLKPEDTAVYYCNAREYIHWRGALGLFGSWGQGTQVTVSS | high polyreactivity |
| QVQLVESGGGLVQAGGSLRLSCAASGFTFRSNMGWYRQAPGKEREFVAAITKSGGSTYYADSVKGRFTISRDNAKNTVYLQMNSLKPEDTAVYYCAARARYTTGYRIIYDYWGQGSQVTVSS | high polyreactivity |
| QVQLVESGGGLVQAGGSLRLSCAASGYIWCYAMGWDRQAPGKEWELVAAISWGGGSTYYADSVKGRFTISRDNAKNTVYLQMNSLKREDTAVYYCAAVDAVGPTSHAMYYWGLGTQVTVSS | low polyreactivity |
| QVQLVESGGGLVQAGGSLRLSCAASGSTFYNYVMGWYRQAPGKERELVAVINRSGTRTYYADSVKGRLTISRDNAKITVYLQMNSLKPEDTAVYYCNAELSYPGRYDSWGQGTQVTVSS | high polyreactivity |
| QVQLVESGGGLVQAGGRLRLSCAASGRIFGWIAMGWSRQAPGKDRELVAAISADGNTYSADSVKGRFTISRDNAKNTVYVQKNSLKPEDTAVSYCAAESWSADFSWYDYWGQGTQVTVSS | high polyreactivity |
| QVQLVESGGGLVQAGGSLRLSCEASGRTFDTYAMGCYRQAPGKERELVAAITTSGGTTYYADSVKGRFTISRDNAKNTVYLQMNSLKPEDTAVYYCAADPWIEYTYGSKAYYYWGQGTQVTVSS | low polyreactivity |
| QVQLVESGGGLVQAGGSLRLSCAASGSTFYGNAMGWYRQATGKERELVAAIRWRGGRTYYADSVKGRFTISRDNAKNTVYLQMNSLKPEDTAVYYCNALPGVSHTQYDRVGYWGQGTQVTVSS | high polyreactivity |
| QVQLVESGGGLVQAGGSLRVSCAASGSIFKNNPMGWYRQAPGKERELVDANRYSGGRTYYAHSVKGRFTISRDHAKNTVYIQMNSLKPEVTAVYDCAAGSIQYRPTYTGDYWGQGSQVTVSS | high polyreactivity |
| QVQLVESGGGLVQAGGSLRLSCASGSTYVYAMGWYRQAPGKERELVATISSTGSTYYADSVKGRFTISRDNAKNTVYLQMNSLKQEDTAVYYCAADVWNNGWIYGSYDEYDYWGQGTQVTVSS | high polyreactivity |
| QVQRVESGGGLVQAGGSLRLSCAACGLTFRQYAMVWYRQAPGKERELVAAIRSRGGSTYYADSVKGRFTISRDNAKNTVYFQMNSLKPEDTAVYYCAAGGRGWWLYRYNFFSEMDYWGQGTQVTVSS | high polyreactivity |
| QVQLVDSGGGLVQAGGSLRLSCAASGFIFRYYAMGWNRQATGKERELVAAISWSTDNTYYADSVKGRFTILRDNAKNTVYLQMNSLKPEDTAVYYCAADEGWYGPKLDYWGQGTQVTVSS | low polyreactivity |
| QVQLVESGGGLVQAGGSLRLSCAASGSIFRSYAMGWYRQAPGKERELVASISRRGGSTYYADSVKGRFTISRDNAKNSVYLQMNSLKPEDTAVYYCAAVRYNSRVSTTPSEMYYWGQGTQVTVSS | low polyreactivity |

| Sequence | polyreactivity (PSR sort gate) |
| --- | --- |
| QVQLVESGGGLVQAGGRHRLSCAASGSIFTVYTIGWYRQAPGKEREFVAAINSRGGTTYYADSVKGRFTISRDNAKNTVYLQMNSLKPEDTAVYYCAAKQRPKSYGPGHYYWGQGTQVTVSS | high polyreactivity |
| QVQHVESGGGLVQAGGSLRLSCAASGSIFYIYAMGWYRQAPGKERELVAAISGSGSTYYADSVKGRFTISRDNAKNTVYLQMNSLKPEDTAVYDCAVELWRFWGAYTYTYDYWGQGTLVTVSS | high polyreactivity |
| QVQLVESGGGLVQAGGSLRLSCAPSGRTFSVHAMGWYRPARGKGRELVAAISWDGGSTYYADSVKGRFTISRDNANNTVYLQMNSLKPEETAVYYCNKDLYYAYDYWGQGTQVTVSS | low polyreactivity |
| QVQLVESGGVLVQAGGSLRLSCAASGSTFGANAMGWNREAPGKEREFVAAISGSGTTTYYADSVKGRFTISRDNAKNSVYLHLNSLKQEDTAVYYCAKTRKAHWLEYWGQGTKVTVSS | low polyreactivity |
| KVQLVESGGGLVQAGGSHRLSSAASGSTFDGYVMGLYRPAPGKERELVDAISSTGTRTYYADSVKGRFTISRDNATNTFYLQINSMKPEDTAVYYCAAEIDYRYRTVSYYYWGQGSQVTVSS | low polyreactivity |
| QVQLVDSGGGLVQAGGSLRLSCAASGSILLYYTMGWYRPAPGKERELVATMSSSGGSTYYADSVKGRFTISRDNAKNTVYLQMNSLKPEDTAVYYCNADYIYYGTTYEYWGQGTQVTVSS | low polyreactivity |
| QVQLVESGGGLVQAGGSLRLSCAASGSIFYFYAMGGYRQAPGKERELVAAIRSSDGITYYADSVKGRFTISRDNAKNTVYLQMNSLKPEDTAVYYCAALVRDFYNWDTLYYWGQGTQVTVSS | low polyreactivity |
| QVQHVESRGGLVQAGGSLRLSCAASGIIFRYAMGWYRQAPGKERELVAAIRKSDGSTYYADSVKGRFTISRDNAKNTFYLQMNSLKPEDTAVYYCATDIGYGNRKGFYYWGQGSQVTVSS | high polyreactivity |
| QVQLVESGGGLVQAGGSLRLSCAASGSTFYGYTMGWYRQAPGKERELVAVITSGGSTYYADSVKGRFTISRDNAKNTVYLQMNSLKPEDTAVYYCAKRYGYPAYGRPWRIGRTYDYWGQGTQVTVSS | low polyreactivity |
| QVQLVESGGGLVQAGGSLRLSCAASGSIFWSYAMGWYRQAPGKERELVAAITYSGTSTYYADSVKGRFTISRDNAKNTVYLQMNSLKPEDTAVYYCNADAYVYFDDGDYWGQGTQVTVSS | low polyreactivity |
| QVQLVESGGGLVQAGGTLRLSCAASGSIFRYYAMGWYRQAPGKERELVASSSRRGGSTYYADSVKGRFTISRDIANITVYGQMNSLKPEDTAVYYCAAYSYVYGERYYYWGQGSQVTVSS | high polyreactivity |
| QVHLVESGGGLVQAGCSLRLSCAASGSIFYRYAMGWYRQEPGKECELVAAIRTRGGTYYADSVKGRFTISRDNAKNTVYLQIKSLKPEDTAVYYCNAGYGTWYLWYEYWGQGTQVTVSS | high polyreactivity |
| QVQLVESGGGLVQAGGSLRLSCAASGFTLGTYAMGWYRQAPGKERELVASITVTGGSTYYADSVKGRFTISRDNAKNTVYLQMNSLKPEDTAVYYCAASYQHFRSVNPYDSWGQGTQVTVSS | low polyreactivity |
| QVQLVESGGGLVQAGGSLRLSCAASGSIIYLYAMGWYRQAPGKERELVAAISKSGSRTYYADSVKGRFTISRDNAKNTVYLQMNSLKPEDTAVYYCATPYRVYGEGYYWGQGTQVTVSS | high polyreactivity |
| QVQLVESGGGLVQAGGSLRLSCAASGRIFVGYAMVWYRQAPGKERELVAGISRSGDSTYYADSVKGRFTISRDNAKNTVYLQMNSLKPEDTAVYYCAARIIYWGYYYWGQGTQVTVSS | high polyreactivity |
| QVQLEESGGGLVQAGGSLRLSCAASGRIFLYKIMGSYREAPGQERDLVAAISWGTGSTYADSVKGRFTISRDNAINTVYLQIYRLKPEDTAVYYCDADSFMPPYYHWGQGTQVTVSS | low polyreactivity |
| QVQLVESGGGLVQAGGSLRLSCAASGSTFTRYAMGWYRQAPGKERELVAAINWSGTSTYYADSVKGRFTISRDNAKNTVYLQMNSLKPEDTAVYYCNKGYLVRPGDYWGQGTQVTVSS | high polyreactivity |
| QVQLVESGGGLVQAGGSLRLSSAASGSILYYNAMGWYRQAPGKERELVAAITSYGGDTYYADSVKGRFTISRDNAKNTVYLQMNSLKPEDSAVYYCAASSHFRPWAYYDDDYDHWGQGTQVTVSS | low polyreactivity |
| QVQLVESGGGLVQAGGSLRLSCAASGLTFHDYAMGWYIQAHVKERELVAGINSGGSTNYADSVKGRFTISRDNAKNTVYLQMNSLKPEDTAVYYCARGPQYDEGEYWGQCTQVTVSS | low polyreactivity |
| QVQLVESGGGLVQAGGSLRLSCAASGSIFGIYAMGWYRPAPGKERELVATINSRGTTNYADSVKGRFTISRDNAKNTVYLQMNSLKPEDTAVYYCAARFSTYRGKRKGYEYWGQGTQVTVSS | high polyreactivity |
| QVQLVESGGGLVQAGGSLRLSCAASGNTFSQYAMGWYRQAPGKERELLAAISGSGGDTYYADSVKGRFTISRDNAKNTVYLQMNIMKPEDTAVYYCNADQESVFYEDYDYWGQGTQVTVSS | low polyreactivity |
